Tests used:
[1] = biological target: T1, His6-MM_0565 (CARF-wHTH protein) (Methanosarcina mazei Gö1) (UniProt Q8PZC9); test: EMSA; settings: MST: 25 nM labelled protein in His-tag buffer (250 mM NaH2PO4, 1.5 M NaCl, pH 8) + 1 mg/mL BSA, 0.05% Tween20, DNA from annealing buffer (50 mM TES/KOH pH 7.6 …)
T1 sequence: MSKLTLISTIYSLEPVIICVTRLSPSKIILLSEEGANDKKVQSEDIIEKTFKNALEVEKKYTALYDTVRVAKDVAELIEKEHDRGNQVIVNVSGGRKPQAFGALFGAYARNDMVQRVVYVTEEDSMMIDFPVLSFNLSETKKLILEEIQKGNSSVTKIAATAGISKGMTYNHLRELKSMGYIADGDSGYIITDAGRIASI

[2] = biological target: T1, His6-MM_0565 (CARF-wHTH protein) (Methanosarcina mazei Gö1); test: competition; settings: MST: 25 nM labelled protein in His-tag buffer (250 mM NaH2PO4, 1.5 M NaCl, pH 8) + 1 mg/mL BSA, 0.05% Tween20, DNA from annealing buffer (50 mM TES/KOH pH 7.6 …)
[3] = biological target: T2, His6-MM_0565 (CARF-wHTH protein) (Methanosarcina mazei Gö1, UniProt Q8PZC9 1-200); test: MST; MST: 25 nM labelled protein in His-tag buffer (250 mM NaH2PO4, 1.5 M NaCl, pH 8) + 1 mg/mL BSA, 0.05% Tween20, DNA from annealing buffer (50 mM TES/KOH pH 7.6); settings: protein: recombinant, tags: N-terminal His6 (pET28a), chain copies: 2
T2 sequence: T1 sequence

[4] = biological target: the molecule itself; test: SEC; purified His6-MM_0565 on an ENrich SEC 650 column; 50 mM TES buffer pH 7.6, 300 mM KCl; 0.5 mL/min; calibrated with a gel-filtration mass standard
[5] = biological target: the molecule itself; test: SDS-PAGE and Western blot of cell extracts (dimer band kept under denaturing conditions); M. mazei cell extracts (750 µg), cells grown under standard conditions (38.5 mM NaCl) or with 500 mM NaCl; samples boiled 5 min at 95 °C, 12% SDS-PAGE; polyclonal antibodies against MM_0565

Molecule: AGGGCAAAAATTTCCGTTATTTGGTCAGAAAAGGCCTGAAATGAGCCCTTTTTTGGGGCTAAAATTCTTGCTGGAAAATTATCAAACCCTTTATAAATACAAGAAAAAAAGGGTTTTTTTAGTGGTTTGGAAAC (double strand) [leader III-C PCR fragment]
- binding [1]: binds

Molecule: AGGGCAAAAATTTCCGTTATTTGGCCAGAAAAGGCCTGAAATGAGCCCTTTTTCAGGGCTAAAATTCTTGCTGGAAAATTATCAAACCCTTTATAAATACAAGAAAAACTTCTCATACGCAGATATTCCGGTAACAGCAATCTACGCATTTTCT (double strand) [leader I-B PCR fragment]
- binding [2]: binds
- binding [1]: binds

B1: MM_3250 (cas1-solo operon) promoter (dsDNA)
DNA 1: CCGCTCTTACTTATGTACAGAATTGAGTATAACTTTAAGTATAAGTTTGATGTATATTTTGTATATAATT
DNA 2: AATTATATACAAAATATACATCAAACTTATACTTAAAGTTATACTCAATTCTGTACATAAGTAAGAGCGG
- Kd ([3]; blunt): 1600 ± 400 nM

B2: cas8b promoter (CRISPR-Cas I-B operon) (dsDNA)
DNA 1: TCTATTTGCTTATTTTTATAATTATTTTTAGAAATGTATATATAATATGTTAACTATGAACCTTGATGGT
DNA 2: ACCATCAAGGTTCATAGTTAACATATTATATATACATTTCTAAAAATAATTATAAAAATAAGCAAATAGA
- binding result ([3]; blunt): no binding

B3: conserved leader region 1 (5' fragment, 70 nt) (dsDNA)
DNA 1: TTTTTCTTGTATTTATAAAGGGTTTGATAATTTTCCAGCAAGAATTTTAGCCCCAAAAAAGGGCTCATTT
DNA 2: AAATGAGCCCTTTTTTGGGGCTAAAATTCTTGCTGGAAAATTATCAAACCCTTTATAAATACAAGAAAAA
- Kd ([3]; blunt): 960 ± 350 nM

B4: MM_0565 promoter version 1 (wt) (dsDNA)
DNA 1: AACTAAATCCCTATATCGTAAAACATTTAACCAAACCCTACAATACATGACATCTAATGT
DNA 2: ACATTAGATGTCATGTATTGTAGGGTTTGGTTAAATGTTTTACGATATAGGGATTTAGTT
- Kd ([3]; blunt): 285 ± 56 nM

B5: His6-MM_0565 (CARF protein MM_0565 of Methanosarcina mazei Gö1 with N-terminal His6 tag) (natural protein, UniProt Q8PZC9 1-200, looked up)
chain: T1 sequence
notes: MM_0565 gene product of Methanosarcina mazei Gö1; N-terminal CARF domain and C-terminal winged helix-turn-helix domain; gene PCR-amplified (0.6 kbp fragment) and cloned into pET28a(+); approximately 22 kDa; Homodimer by size-exclusion chromatography; also called purified MM_0565; His6-tagged MM_0565; source: E. coli BL21-CodonPlus-RIL (plasmid pRS923, pET28a), purified (Ni-NTA agarose); not …
- stoichiometry N [4]: 2

B6: MM_0565, endogenous in Methanosarcina mazei Gö1 (natural protein, UniProt Q8PZC9 1-200, looked up)
chain: T1 sequence
notes: MM_0565 gene product of Methanosarcina mazei Gö1, detected in cell extracts with polyclonal antibodies against MM_0565 as bands of 25 and 50 kDa; Both a monomer band and a dimer band were seen on the denaturing gel; also called dimeric MM_0565; source: endogenous, M. mazei Gö1 cell extracts
- stoichiometry N [5]: 2

B7: conserved leader region 2 (3' fragment) (dsDNA)
DNA 1: CAAGAATTTTAGCCCTGAAAAAGGGCTCATTTCAGGCCTTTTCTGGCCAAATAACGGAAATTTTTGCCCT
DNA 2: AGGGCAAAAATTTCCGTTATTTGGCCAGAAAAGGCCTGAAATGAGCCCTTTTTCAGGGCTAAAATTCTTG
- binding result [3]: no binding

From paper PMC7465815, “The CARF Protein MM_0565 Affects Transcription of the Casposon-Encoded cas1-solo Gene in Methanosarcina mazei Gö1” (Biomolecules, 2020)
